Test results from patent publication US20190031761A1 (SAMSUNG LIFE PUBLIC WELFARE FOUNDATION, published 2019).

How the values were obtained:
[1] = target: EGFR expressed on cells (780 patient-derived cells; normal human epidermal keratinocytes) (human, UniProt P00533 25-1210); assay: FACS on normal human epidermal keratinocytes (EGFR only), Alexa Fluor 488 anti-human IgG
[2] = target: T1, EGFRvIII expressed in cells (vIII352T1 cells; 626 patient-derived cells) (human, UniProt P00533 25-1210); assay: FACS on vIII352T1 cells (EGFRvIII only), Alexa Fluor 488 anti-human IgG
T1 construct: whole, on cells; On vIII352T1 cells (EGFR-/EGFRvIII+) in FACS and cytotoxicity assays

[3] = target: T2, EGFRvIII recombinant protein with Fc tag, produced in-house (human); assay: SPR (Biacore T200), antibody captured with human Fab capture kit, EGFRvIII antigen 0.25 nM to 256 nM as analyte
T2 construct: Produced in Expi293 cells; also called EGFRvIII antigen

[4] = target: T3, recombinant human EGFR/ErbB1 Fc chimera protein (R&D systems, 344-ER) (human, UniProt P00533 25-645); assay: SPR (Biacore T200), B4A3 captured as ligand, rhEGFR-Fc as sample, 25 C, 1:1 Binding fit to sensorgrams that hardly leave the baseline
T3 construct: Bought protein; also called EGFR recombinant protein; Fc part of the bought chimera not given

T2 sequence (chain, as listed by the source limits assumed): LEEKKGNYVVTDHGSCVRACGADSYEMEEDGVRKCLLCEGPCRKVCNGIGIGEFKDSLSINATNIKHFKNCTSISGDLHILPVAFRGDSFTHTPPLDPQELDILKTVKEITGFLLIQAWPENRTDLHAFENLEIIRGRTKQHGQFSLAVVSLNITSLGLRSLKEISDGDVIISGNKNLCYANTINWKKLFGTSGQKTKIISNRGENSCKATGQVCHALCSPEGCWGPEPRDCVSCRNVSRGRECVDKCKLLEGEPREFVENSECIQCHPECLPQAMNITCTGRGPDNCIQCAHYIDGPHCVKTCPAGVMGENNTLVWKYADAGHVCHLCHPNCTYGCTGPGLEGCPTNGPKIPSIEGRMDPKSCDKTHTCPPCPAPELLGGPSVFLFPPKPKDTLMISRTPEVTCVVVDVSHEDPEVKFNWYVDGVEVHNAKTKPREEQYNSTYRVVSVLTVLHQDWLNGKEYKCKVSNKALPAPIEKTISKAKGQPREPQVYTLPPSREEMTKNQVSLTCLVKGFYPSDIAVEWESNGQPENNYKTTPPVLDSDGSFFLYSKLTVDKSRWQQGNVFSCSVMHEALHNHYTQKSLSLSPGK

EC50 (read off the curve) [1]: ~0.03 nM | EC50 (read off the curve) [2]: ~0.04 nM | Kd [3]: 4.38 nM | koff [3]: 0.000248 s⁻¹ | kon [3]: 56600 M⁻¹ s⁻¹ | koff [4]: 0.00801 s⁻¹ | kon [4]: 632 M⁻¹ s⁻¹
B1: B4A3 antibody (human IgG1) (antibody, V domains shown)
VH: EVQLLESGGGLVQPGGSLRLSCAASGFTFSNYYMSWVRQAPGKGLEWVSGTSPNGGSKYYADSVKGRFTISRDNSKNTLYLQMNSLRAEDTAVYYCAKGRRKLRATRFDYWGQGTLVTVSS
VL: QSVLTQPPSASGTPGQRVTISCTGSSSNIGNNYVSWYQQHPGTAPKLLIYSDSNRPSGVPDRFSGSKSGTSASLAISGLRSEDEADYYCATWDASLSAYVFGGGTKLTVL
notes: also called B4A3 IgG; B4A3 human IgG1
